Data reported in US20210238260A1 (published 2021).
Residue numbers refer to the chain shown, from its start. Numbers in names are those of the source.

B1: FIXa D203N/F205T/R318Y/E410N (enzyme)
light: YNSGKLEEFVQGNLERECMEEKCSFEEAREVFENTERTTEFWKQYVDGDQCESNPCLNGGSCKDDINSYECWCPFGFEGKNCELDVTCNIKNGRCEQFCKNSADNKVVCSCTEGYRLAENQKSCEPAVPFPCGRVSVSQTSKLTR
heavy: VVGGEDAKPGQFPWQVVLNGKVNATCGGSIVNEKWIVTAAHCVETGVKITVVAGEHNIEETEHTEQKRNVIRIIPHHNYNAAINKYNHDIALLELDEPLVLNSYVTPICIADKEYTNIFLKFGSGYVSGWGRVFHKGYSALVLQYLRVPLVDRATCLRSTKFTIYNNMFCAGFHEGGRDSCQGDSGGPHVTEVEGTSFLTGIISWGEECAMKGKYGIYTKVSRYVNWIKNKTKLT
notes: also called D39N/F41T/R150Y/E240N
B2: FIXa A103N/N105S/R318Y/R338E/R403E/E410N (enzyme)
light: B1 light with A103N, N105S
heavy: B1 heavy with N23D, T25F, R158E, R223E
B3: FIXa-D203N/F205T/R318Y/E410N (enzyme)
chain 1: B1 light
chain 2: B1 heavy
notes: as for B1
B4: FIXa-A103N/N105S/R318Y/R338E/R403E/E410N (enzyme)
chain 1: B1 light with A103N, N105S
chain 2: B1 heavy with N23D, T25F, R158E, R223E
B5: FIXa-R318Y/R338E/T343R (enzyme)
chain 1: B1 light
chain 2: B1 heavy with N23D, T25F, R158E, T163R, N230E
B6: FIXa-D104N/K106S/R318Y/R338E/E410N (enzyme)
chain 1: B1 light with D104N, K106S
chain 2: B1 heavy with N23D, T25F, R158E
B7: FIXa-R318Y/R338E/E410N (enzyme)
chain 1: B1 light
chain 2: B1 heavy with N23D, T25F, R158E
notes: also called R150Y/R170E/E240N
B8: FIXa-D104N/K106S/Y155F/R318Y/R338E/R403E/E410N (enzyme)
chain 1: B1 light with D104N, K106S
chain 2: B1 heavy with N23D, T25F, R158E, R223E
B9: FIXa-R338E/R403E/E410N (enzyme)
chain 1: B1 light
chain 2: B1 heavy with N23D, T25F, Y138R, R158E, R223E
notes: also called R170E/R233E/E240N
B10: FIXa-R318Y/R338E/R403E (enzyme)
chain 1: B1 light
chain 2: B1 heavy with N23D, T25F, R158E, R223E, N230E
notes: also called R150Y/R170E/R233E
B11: FIXa-R318Y/R338E/R403E/E410N (enzyme)
chain 1: B1 light
chain 2: B1 heavy with N23D, T25F, R158E, R223E
notes: also called R150Y/R170E/R233E/E240N
B12: FIXa-Y155F/R318Y/T343R/E410N (enzyme)
chain 1: B1 light
chain 2: B1 heavy with N23D, T25F, T163R
B13: FIXa-Y155F/K247N/N249S/R338E/E410N (enzyme)
chain 1: B1 light
chain 2: B1 heavy with N23D, T25F, K67N, N69S, Y138R, R158E
B14: FIXa-Y155F/K247N/N249S/R318Y/R338E/T343R/R403E/E410N (enzyme)
chain 1: B1 light
chain 2: B1 heavy with N23D, T25F, K67N, N69S, R158E, T163R, R223E
B15: FIXa-K228N/K247N/N249S/R318Y/R338E/T343R/E410N (enzyme)
chain 1: B1 light
chain 2: B1 heavy with N23D, T25F, K48N, K67N, N69S, R158E, T163R
notes: also called K63N/K82N/N84S/R150Y/R170E/T175R/E240N (chymotrypsin numbering)
B16: FIXa-K247N/N249S/R338E/T343R/E410N (enzyme)
chain 1: B1 light
chain 2: B1 heavy with N23D, T25F, K67N, N69S, Y138R, R158E, T163R
notes: also called K82N/N84S/R170E/T175R/E240N (chymotrypsin numbering)
B17: FIXa-R318Y/R338E/T343R/R403E/E410S (enzyme)
chain 1: B1 light
chain 2: B1 heavy with N23D, T25F, R158E, T163R, R223E, N230S
notes: also called R150Y/R170E/T175R/R233E/E240S (chymotrypsin numbering)
B18: FIXa-Y155F/K247N/N249S/R338E/T343R (enzyme)
chain 1: B1 light
chain 2: B1 heavy with N23D, T25F, K67N, N69S, Y138R, R158E, T163R, N230E
B19: FIXa-R318Y/T343R/R403E/E410N (enzyme)
chain 1: B1 light
chain 2: B1 heavy with N23D, T25F, T163R, R223E
notes: also called R150Y/T175R/R233E/E240N (chymotrypsin numbering)
B20: FIXa-Y155F/K247N/N249S/R318Y/R338E/T343R/E410N (enzyme)
chain 1: B1 light
chain 2: B1 heavy with N23D, T25F, K67N, N69S, R158E, T163R
B21: FIXa-K228N/R318Y/R338E/T343R/R403E/E410N (enzyme)
chain 1: B1 light
chain 2: B1 heavy with N23D, T25F, K48N, R158E, T163R, R223E
notes: also called K63N/R150Y/R170E/T175R/R233E/E240N (chymotrypsin numbering)
B22: FIXa-Y155F/K247N/N249S/N260S (enzyme)
chain 1: B1 light
chain 2: B1 heavy with N23D, T25F, K67N, N69S, N80S, Y138R, N230E
B23: FIXa-K247N/N249S/N260S (enzyme)
chain 1: B1 light
chain 2: B1 heavy with N23D, T25F, K67N, N69S, N80S, Y138R, N230E
notes: also called K82N/N84S/N95S (chymotrypsin numbering)
B24: FIXa-K247N/N249S/N260S/R318Y/R338E/R403E/E410N (enzyme)
chain 1: B1 light
chain 2: B1 heavy with N23D, T25F, K67N, N69S, N80S, R158E, R223E
notes: also called K82N/N84S/N95S/R150Y/R170E/R233E/E240N (chymotrypsin numbering)
B25: FIXa-D104N/K106S/K247N/N249S/N260S (enzyme)
chain 1: B1 light with D104N, K106S
chain 2: B1 heavy with N23D, T25F, K67N, N69S, N80S, Y138R, N230E
B26: FIXa-D104N/K106S/Y155F/K247N/N249S/N260S (enzyme)
chain 1: B1 light with D104N, K106S
chain 2: B1 heavy with N23D, T25F, K67N, N69S, N80S, Y138R, N230E

biological target: T1, plasma purified human antithrombin III (AT-III), in complex with unfractionated heparin (human, UniProt P01008 33-464); experiment: AT-III/UFH inhibition of FIXa; K0.5 = AT-III conc. for 50% inhibition of residual activity on Mesyl-D-CHG-Gly-Arg-AMC
T1 construct: also called AT-III/UFH

First: B1
Second: B2
The IC50 of the first is 7.2-fold lower: 1280 nM for the first, 9190 nM for the second. The first is the more potent here.

biological target: T2, plasma purified human AT-III (antithrombin III) (human, UniProt P01008 33-464); experiment: K0.5: AT-III conc. for 50% inhibition of FIXa amidolytic activity, AT-III/UFH titrated, 10 s incubation
T2 construct: also called AT-III/UFH complex

First: B3
Second: B4
The IC50 of the first is 7.2-fold lower: 1280 nM for the first, 9190 nM for the second. The first is the more potent here.

biological target: Factor X (FX) (UniProt P00742 41-488); experiment: cell-based or functional assay

For B5, the “Factor X activation, fold over wild-type or BeneFIX FIX” value was ~2.5 fold.

biological target: T3, Factor VIIIa (recombinant FVIII, Kogenate FS, activated with alpha-thrombin) (UniProt P00451 20-2351); experiment: apparent functional KD (KD-app): FXa generation by FIXa with FVIIIa titrated, PC/PS vesicles, saturating FX, fluorogenic Spectrafluor FXa
T3 construct: also called FVIIIa; cofactor
T3 sequence (looked up): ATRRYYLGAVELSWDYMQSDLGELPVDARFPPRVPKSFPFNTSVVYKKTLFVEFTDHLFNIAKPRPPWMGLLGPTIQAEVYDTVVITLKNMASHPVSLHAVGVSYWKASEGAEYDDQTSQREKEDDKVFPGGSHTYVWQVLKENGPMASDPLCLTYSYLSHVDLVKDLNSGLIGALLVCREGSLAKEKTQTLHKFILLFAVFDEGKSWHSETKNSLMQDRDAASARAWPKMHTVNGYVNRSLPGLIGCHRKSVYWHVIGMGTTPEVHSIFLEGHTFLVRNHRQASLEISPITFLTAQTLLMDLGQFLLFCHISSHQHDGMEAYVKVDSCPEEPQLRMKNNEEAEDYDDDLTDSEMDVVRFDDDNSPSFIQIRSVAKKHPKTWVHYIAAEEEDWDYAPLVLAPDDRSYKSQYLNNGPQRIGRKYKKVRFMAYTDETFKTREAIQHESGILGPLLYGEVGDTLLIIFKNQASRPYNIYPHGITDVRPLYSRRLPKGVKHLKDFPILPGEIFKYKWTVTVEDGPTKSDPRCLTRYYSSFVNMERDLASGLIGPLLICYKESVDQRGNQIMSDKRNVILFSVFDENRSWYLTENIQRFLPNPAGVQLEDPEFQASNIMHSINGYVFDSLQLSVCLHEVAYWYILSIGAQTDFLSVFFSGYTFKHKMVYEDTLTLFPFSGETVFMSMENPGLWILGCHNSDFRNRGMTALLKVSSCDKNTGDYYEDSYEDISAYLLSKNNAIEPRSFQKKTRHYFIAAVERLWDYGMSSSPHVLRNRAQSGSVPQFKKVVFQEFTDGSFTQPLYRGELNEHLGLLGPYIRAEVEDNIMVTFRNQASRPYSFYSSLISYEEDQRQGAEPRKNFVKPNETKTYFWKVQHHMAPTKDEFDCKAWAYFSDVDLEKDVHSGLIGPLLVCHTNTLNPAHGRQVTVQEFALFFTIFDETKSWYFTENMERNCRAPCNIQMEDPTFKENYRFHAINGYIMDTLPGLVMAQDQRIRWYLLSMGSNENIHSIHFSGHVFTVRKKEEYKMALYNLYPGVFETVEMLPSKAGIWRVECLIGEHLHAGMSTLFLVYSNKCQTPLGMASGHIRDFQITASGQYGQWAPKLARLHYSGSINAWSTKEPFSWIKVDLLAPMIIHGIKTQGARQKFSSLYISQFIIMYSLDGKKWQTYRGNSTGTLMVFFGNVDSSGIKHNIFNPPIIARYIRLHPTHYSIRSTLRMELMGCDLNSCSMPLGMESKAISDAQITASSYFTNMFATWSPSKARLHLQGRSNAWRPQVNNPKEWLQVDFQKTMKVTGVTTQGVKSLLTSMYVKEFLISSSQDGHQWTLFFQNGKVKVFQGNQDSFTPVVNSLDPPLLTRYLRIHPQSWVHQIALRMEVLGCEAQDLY

Compared with B6, B7 is 1.6-fold lower in Kd: 12.4 nM for the first, 7.7 nM for the second. The second binds more tightly here.

B8 and B9 are within 1.5-fold of each other in Kd: 61.6 nM for the first, 54.9 nM for the second.

Going from B10 to B11, the Kd falls from 340 nM to 47 nM (7.2-fold).

biological target: T4, Factor VIIIa (recombinant FVIII, Kogenate FS, activated with alpha-thrombin) (UniProt P00451 20-2351); experiment: functional cofactor affinity KD-app: fluorogenic FX activation (Xase) assay, FVIIIa titrated, PC/PS vesicles, saturating FX
T4 construct: also called FVIIIa
T4 sequence (looked up): T3 sequence (looked up)

Going from B12 to B13, the Kd falls from 38 nM to 24.9 nM (1.5-fold).

First: B14
Second: B15
The Kd of the first is 2-fold higher: 15.3 nM for the first, 7.8 nM for the second. The second binds more tightly here.

First: B16
Second: B17
The Kd of the first is 1.7-fold lower: 14 nM for the first, 23.2 nM for the second. The first binds more tightly here.

Going from B18 to B19, the Kd rises from 15.4 nM to 84.1 nM (5.5-fold). The first binds more tightly here.

B20 and B21 are within 1.5-fold of each other in Kd: 13.9 nM for the first, 17.5 nM for the second.

biological target: T4, Factor VIIIa (recombinant FVIII, …); experiment: ratio of KD-app of wild-type FIXa (Catalyst Biosciences WT, SEQ ID NO:3) to that of the variant, same Xase assay

Going from B12 to B13, the KD-WT/KD-mut rises from 2.5 to 3.8.

First: B14
Second: B15
The KD-WT/KD-mut of the first is lower: 6.3 for the first, 12.2 for the second.

Going from B16 to B17, the KD-WT/KD-mut falls from 6.8 to 4.1.

Going from B18 to B19, the KD-WT/KD-mut falls from 6.2 to 1.1.

Compared with B20, B21 is lower in KD-WT/KD-mut: 6.9 for the first, 5.4 for the second.

biological target: T3, Factor VIIIa (recombinant FVIII, …); experiment: same assay; ratio of KD-app of Catalyst Biosciences WT FIXa to KD-app of this FIXa

Going from B6 to B7, the KD-WT/KD-mut rises from 7.7 to 12.4.

Going from B8 to B9, the KD-WT/KD-mut rises from 1.6 to 1.7.

First: B10
Second: B11
The KD-WT/KD-mut of the first is lower: 0.3 for the first, 2 for the second.

biological target: T5, plasma purified human antithrombin III (AT-III), in complex with unfractionated heparin (UFH) (human, UniProt P01008 33-464); experiment: K0.5: AT-III concentration (with excess UFH) for 50% inhibition of FIXa activity on Mesyl-D-CHG-Gly-Arg-AMC, 10 s incubation
T5 construct: also called AT-III/UFH

B22 and B23 are within 1.5-fold of each other in IC50: 152 nM for the first, 157 nM for the second.

First: B24
Second: B25
The IC50 of the first is 4.4-fold higher: 5560 nM for the first, 1260 nM for the second.

B26 showed an IC50 of 692 nM.
